Experimental findings from paper PMC3903622, “Kinetics of Phosphomevalonate Kinase from Saccharomyces cerevisiae” (PLoS ONE, 2014) are described below.

Substrate in series [1]: C[C@@](O)(CCOP(=O)(O)O)CC(=O)O
The series is described as follows: purified protein. In kind it is biochemical, Saccharomyces cerevisiae. The following applies: co-substrate ATP (0.1–8.0 mM range), 10 mM MgCl2, 100 mM KCl, 200 mM Tris pH 7.2, 30°C.

Substrate in series [2]: Nc1ncnc2c1ncn2[C@@H]1O[C@H](COP(=O)(O)OP(=O)(O)OP(=O)(O)O)[C@@H](O)[C@H]1O
The series is described as follows: purified protein. The class given is biochemical, Saccharomyces cerevisiae. The note with it: co-substrate mevalonate-5-phosphate (0.2–10.0 mM range), 10 mM MgCl2, 100 mM KCl, 200 mM Tris pH 7.2, 30°C.

B1: phosphomevalonate kinase (PMK) from S. cerevisiae; PMK-His (Saccharomyces cerevisiae S288C) (protein)
chain: MSELRAFSAPGKALLAGGYLVLDTKYEAFVVGLSARMHAVAHPYGSLQGSDKFEVRVKSKQFKDGEWLYHISPKSGFIPVSIGGSKNPFIEKVIANVFSYFKPNMDDYCNRNLFVIDIFSDDAYHSQEDSVTEHRGNRRLSFHSHRIEEVPKTGLGSSAGLVTVLTTALASFFVSDLENNVDKYREVIHNLAQVAHCQAQGKIGSGFDVAAAAYGSIRYRRFPPALISNLPDIGSATYGSKLAHLVDEEDWNITIKSNHLPSGLTLWMGDIKNGSETVKLVQKVKNWYDSHMPESLKIYTELDHANSRFMDGLSKLDRLHETHDDYSDQIFESLERNDCTCQKYPEITEVRDAVATIRRSFRKITKESGADIEPPVQTSLLDDCQTLKGVLTCLIPGAGGYDAIAVITKQDVDLRAQTANDKRFSKVQWLDVTQADWGVRKEKDPETYLDK
notes: E. coli codon-optimized gene in pET-52b+, C-terminal 6xHis tag (removal not mentioned), expressed in E. coli BL21(DE3), Ni-NTA purified
As a reminder, the Km is the concentration of substrate that gives half-maximal velocity. Take B1: the values for the Km in series [1] and in series [2] were 885 µM and 98.3 µM, respectively.
